# Test results as given in the DeepSol protein solubility set.
# Assay: soluble on expression in E. coli; label from the status in PepcDB or PDB records
row,Sequence,soluble on expression in E. coli
1,VTSPNSTAPTPSLITAPPPSTTEDLRLALRAATLYYLDGMTQAEVATRLGVSRPTAGRLVARARAQGLVRIEVQAPAHLRDALRSDEERALEEKYGLVEAVVVADSVDAAGAIDDHNSFAGVGRAAASLLVRRIREGDTLGFTWGPETVAVAQGLPSGAATCASVVQLDGSVSAINYQTGTEYVLGRCAEQLQANTVRLPVPLYADASTVVSMRGDSVISKALEAGRTAEMMMFGTGAVSTSTTLFEGSFIDTDMLSVLTGLGAVGEVGGRFYRLDGTEVAGPLDERAMSVPLDDIRACEGSILVTGGVAKHQAALGALHGGLAKMLVCDIECARWLLDQ,not soluble
2,MAIIASNNSWDLYQLAVVILNYRTPQLVVDCLASLVSQIDPQTQQVIVVDNASGDDSVEEIEKAIANNNWQDWVRLLPSDVNGGFSAGNNLGIQAIRAENYLLLNSDTIVRPGAIQTLLVALEQYPEAGLFSPRLEWPDGTPQISCFRDHSPLSEMIDGARTSVITKLLQPFDVPIPVTEQSFEPQWTSFACVLIRRSVVEQIGLMDDGYFMYYDDIDYCRRARQAAWKIRYIPQASVVHLRGGSGSVKSDVASRKRPRPYLYASRSRYFAKFYGPLGLALANLGWLGGWGIAALREILGQKEPHTCDRQWQDIWFQWRQPLKPYRPELEHHHHHH,soluble
3,MGSDKIHHHHHHMNTHKHARLTFLRRLEMVQQLIAHQVCVPEAARAYGVTAPTVRKWLGRFLAQGQAGLADASSRPTVSPRAIAPAKALAIVELRRKRLTQARIAQALGVSASTVSRVLARAGLSHLADLEPAEPVVRYEHQAPGDLLHIDIKKLGRIQRPGHRVTGNRRDTVEGAGWDFVFVAIDDHARVAFTDIHPDERFPSAVQFLKDAVAYYQRLGVTIQRLLTDNGSAFRSRAFAALCHELGIKHRFTRPYRPQTNGKAERFIQSALREWAYAHTYQNSQHRADAMKSWLHHYNWHRPHQGIGRAVPISRLNLDEYNLLTVHS,not soluble
4,METACERLHVAQETQMQLIEKSSDKLQDHILYWTAVRTENTLLYAARKKGVTVLGHCRVPHSVVCQERAKQAIEMQLSLQELSKTEFGDEPWSLLDTSWDRYMSEPKRCFKKGARVVEVEFDGNASNTNWYTVYSNLYMRTEDGWQLAKAGADGTGLYYCTMAGAGRIYYSAFGDEAARFSTTGHYSVRDQDRVYAGVSSTSSDFRDRP,soluble
5,MESTQKDIKLEPDEFNYIIAPGAPESENLAENPENPVDLSEIPLETKPAWFPSSKGRSIVWEHITWVAESQRAACNYCAAEFQVKGGTSALLRHLKTIHPAAINFDPENPPPVARRKRKKMEDYTIVTEDTKSYMDNLLEQFLNVDDSAPRGGLPDHDSPQHMLVVDPQSRADSEIDAVIRNLQQETEQNGLLEPEPDQALKKLLGIDDGRCEEVIAIAAPIQQDEEKQVSSSSGGAQTKKRRADEQKLTENPALNSGKFSLSILSAIRRPPLPSSTATSSSAAAPQIPAMTSSAVASATSAAAAATPMMPAKYNAQAVQILDFEAKVLYNQSLHSTIAREDAMTTYYRMKSRKLELEIKKLERELGEEQDEAQEHEE,not soluble
6,MSLNPRLFSPHIIRSLLDLDAYKINMMQAIHHFYPDVSVRYELIVRSEEDASGLLDAIRQEIAHLGTLRFSDADIHYLTQHAPHLKATFLQSLRYFHFVPQEQVEMGIVKQGGKQQLRISIRGSWRDTILYETLVMAIVSEVRSRQRWAEVPADLPLKVLKTKLDQLKAEIERRGINNFSLTEMGTRRRFSSQVQRDVLACLKQEIPQWVLGTSNYHFAREFDLKPIGTIAHEWFMGHQALVNERDSQQVALERWLTAFDGMLAIAPTDTLTIDAFLNDFNRHLANAYDGVRHDSGCPFRWGDKMIAHYQQLGIDPTTKLFIFSDGLDFDQALELCEYFAGRVKISFGIGTFLTNDLANWRNAAGVEYRPLSIVIKLAECQGRPVAKISDQPEKAMCEDPIFLANLKRRFNIELDVDALIQELRHQKRSPRHYISAAEGHHHHHH,soluble
7,MLDPRLSVAPMVDRTDRHFRFLVRQVSLGVRLYTEMTVDQAVLRGNRERLLAFRPEEHPIALQLAGSDPKSLAEAARIGEAFGYDEINLNLGCPSEKAQEGGYGACLLLDLARVREILKAMGEAVRVPVTVKMRLGLEGKETYRGLAQSVEAMAEAGVKVFVVHARSALLALSTKANREIPPLRHDWVHRLKGDFPQLTFVTNGGIRSLEEALFHLKRVDGVMLGRAVYEDPFVLEEADRRVFGLPRRPSRLEVARRMRAYLEEEVLKGTPPWAVLRHMLNLFRGRPKGRLWRRLLSEGRSLQALDRALRLMEEEVGEEGEKEKPGPRGQREAAPGPAREGV,soluble
8,MNSSKAGGCHGINDIKVKTAKPKDKPYKLADGGGMYLLINTNGSKYWRMKYRFAGKEKMLSIGVYPDVTLADAREKRSEARKLLAAGGDPGEAKKEEKIAQQMSLKNTFEAIAREWHQLKADRWSLRYRDEIIDTFEKDIFPYIGKRPIAEIKPMKLLEALRKMEKRGALEKMRKVRQRCGEVFRYAIVTGRADYNPAPDLASALATPKKVHFPFLTANELPHFLNDLAGYTGSIITKTATQIIMLTGVRTQELRFARWEDIDFETKLWEIPAEVMKMKRPHIVPLSEQVIMLFKQLEPISKHHPLVFIGRNDPRKPISKESINQVIELLGYKGRLTGHGFRHTMSTILHEQGFNSAWIEMQLAHVDKNSIRGTYNHALYLDGRREMMQWYADYIDSLSSRES,not soluble
9,MAKLYFYYSTMNAGKSTTLLQSSYNYRERDMNTLVYTAAIDDRFGVGKVTSRIGISQDAFLFRSETNLFDEINEHLKKEKVHCVLVDEAQFLSKQQVYQLSDVVDKLKIPVLCYGLRTDFQAELFEGSKYLLAWADQLEELKTICYCGRKANFVLRLNDQGEVIKEGAQIQIGGNDSYLSVCRLHYKEKCGQILEHHHHHH,soluble
10,MGSDKIHHHHHHMSFNIGLSGIQAASSGLNVTGNNIANAGTVGFKQSRAEFADVYAASVLGSGSNPQGSGVLLSDVSQMFKQGNIDSTNSVLDLAINGNGFFVTSNNGAISYTRAGYFNTDKQDFIVDNNGYRLQGYAVGPNGQLQNGVVTDLKVERANQAPQATSSIQQSYNLNSTLKPPTVTPFDPSDAATYNSSSSLGIYDSQGNSHTMSQFFIKNEPDPNATPPIPENSWTMKVLIDGVNPLDPSNKTPMSFNVTFDASGQMTSVRAPDGSTSGPGFSIDATTNVIQFSPATGNPPTPGTGWIPAASDGKTPPTYAWNGATGAASGISFDMRKTTQYSTAFAQSNPIQDGYTTGQLAGLEIDDTGVIFARYTNGQSKVQGQVVLANFANIQGLTPIGKTSWVQSSESGEPAVGAPRSGTLGALQSGALEASNVDISNELVNLIVHQRNYQANAKTIQTEDAVTQTIINLR,not soluble
11,MSLSFLKHVQDCNTHDLSNFVRFVIEGRRVGWVRKALAQRLKAHGRVFDVTRDAVLLSASLRTPQSRTRAVADVVDRLADEGVVPAPRGELYRVNQSWGEPTLMLLDRAVVPTFGVRAYGVHLNGYVGAGADLHLWIGRRSPDKSVAPGKLDNMVAGGQPADLSLRQNLIKECAEEADLPEALARQAIPVGAITYCMESPAGIKPDTLFLYDLALPEDFRPHNTDGEMADFMLWPAAKVVEAVRTTEAFKFNVNLTVIDFAIRHGLIDPDNEPDYQEILAGLRGRPRERAASEGHHHHHH,soluble
12,SLIMRYADSGLCGTVSQNMADARTRAESTDLSETSPDE,soluble
13,MKTETPSVKIVAITADEAGQRIDNFLRTQLKGVPKSMIYRILRKGEVRVNKKRIKPEYKLEAGDEVRIPPVRVAEREEEAVSPHLQKVAALADVILYEDDHILVLNKPSGTAVHGGSGLSFGVIEGLRALRPEARFLELVHRLDRDTSGVLLVAKKRSALRSLHEQLREKGMQKDYLALVRGQWQSHVKSVQAPLLKNILQSGERIVRVSQEGKPSETRFKVEERYAFATLVRCSPVTGRTHQIRVHTQYAGHPIAFDDRYGDREFDRQLTEAGTGLNRLFLHAAALKFTHPGTGEVMRIEAPMDEGLKRCLQKLRNAR,soluble
14,MRGSHHHHHHTDPALRACELLGMSANVPTDICFSFTGLVQRGGGTGPHKDGWGITFYEGKGCRTFKDPQPSFNSPIAKLVQDYPIKSCSVVAHIRQANRGEVALENTHPFTRELWGRNWTYAHNGQLTGYKSLETGNFRPVGETDSEKAFCWLLHKLTQRYPRTPGNMAAVFKYIASLADELRQKGVFNMLLSDGRYVMAYCSTNLHWITRRAPFGVATLLDQDVEIDFSSQTTPNDVVTVIATQPLTGNETWQKIMPGEWRLFCLGERVVGLCGR,soluble
